# Experimental data taken from paper PMC3507683, “Crystal Structure of the Hexachlorocyclohexane Dehydrochlorinase (LinA-Type2): Mutational Analysis, Thermostability and Enantioselectivity” (PLoS ONE, 2012).
# B1: Hexachlorocyclohexane dehydrochlorinase LinA-type2 (enzyme, UniProt P51697 1-156, looked up)
# chain: MSDLDRLASRAAIQDLYSDQLIGVDKRQEGRLASIWWDDAEWTIEGIGTYKGPEGALDLANNVLWPMYHETIHYGTNLRLEFVSADKVNGIGDVLCLGNLVEGNQSILIAAVYTNEYERRDGVWKFSKLNGCMNYFTPLAGIHFAPPGIHFAPSGA
# notes: LinA-type2, gamma-hexachlorocyclohexane dehydrochlorinase variant obtained by PCR from metagenomic DNA of an HCH-contaminated soil (GenBank EU863871); It differs by 10 residues from LinA-type1 (= LinA-UT26 of Sphingobium japonicum UT26, 156 amino acids); The printed primers run from the ATG start codon to the last codon, without a stop codon; Homotrimer; also called -type2 protein; source: E. …
# Biological target: the molecule itself
# Experiment: crystal structure; hanging drop, 293 K, 0.1 M trisodium citrate pH 5.5, 3% PEG 3350; space group P6(3)22; seven subunits in the asymmetric unit; 3.5 Å
protein,measurement,value
B1,stoichiometry N,3
